Results taken from US20250034594A1, “RNA-GUIDED GENOME RECOMBINEERING AT KILOBASE SCALE” (THE BOARD OF TRUSTEES OF THE LELAND STANFORD JUNIOR …, priority 2021, published 2025).

Columns and labels:
Type in all cases: cell-based
[1] = test system: gene editing with Cas9 and dCas9; experiment: Screen of 322 new SSAP proteins, activity across all experiments (Cas9 and dCas9, Table 5); design: scale not given here
Summary of the method: (§1)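 First, 322 new single-strand annealing proteins are identified from sequences. Next they are synthesized. Finally each is assayed for editing in combination with Cas9 and, separately, dCas9.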

[2] = test system: gene editing with dCas9; experiment: Screen of 322 new SSAP proteins, gene editing activity with dCas9 (Table 5); design: dCas9 with SSAP activity: scale not given here
Summary of the method: as §1

[3] = test system: gene editing with Cas9; experiment: Screen of 322 new SSAP proteins, gene editing activity with Cas9 (Table 5); design: Cas9 with SSAP activity: scale not given here
Summary of the method: as §1

Molecule	Activity across all experiments [1]	dCas9 with SSAP activity [2]	dCas9 with SSAP activity (normalized) [2]	Cas9 with SSAP activity [3]	Cas9 with SSAP activity (normalized) [3]
SSAP_109: SEQ ID NO: 278; Bacillus (multispecies) (protein, listed as Bacillus sp.) TQAEKLKNDIAKQEQKNEVAQDDKPKTILDVMMQHKESFEMALPKHLDADRLIRLAVTEFRKNPMLKECTPESLLGAVMQAAQVGLEPDALGSAYLVPYYNKNKNVKEVQLQIGYKGLIELVRRSGQVTSIVANEVYENDEFDFEYGINEKLYHKPTMDADRGKLKCFYAYARFKDGGHAFTVMSVEQINQIRDKFSKSQKNGKHFGPWADHYESMAKKTVIKQLVKYMPISVEIQNQITRDETVHSSFKEEPKPIYAFEESPDIIDAPIEN	−2.932	−4.168	−0.640	−1.697	−0.475
SSAP_70: SEQ ID NO: 239 (protein) SNLKNQLANKAGGTATKKQPQTMQDWIKVMEPQIKKALPSVITAERFTRMALTAISTNPKLAECTPESFMGALMNAAQLGLEPNTPLGQAYLIPYGKSVQFQVGYKGLMELAQRSGQFKSIYAHTVYENDEFEVEYGLTQNIVHKPNFDDRGKPIGFYAVYKLTNGGENFVFMTQREVEEFGKAKSKTFNNGPWKTDFEAMAKKTVLKQLLKYAPIKVEFQREIAQDATIKTEIAEDMTEVPEEMVEAEYEVVEQNTMAEDADLKGTPFETK	−2.666	−4.070	−0.652	−1.263	−0.349
SSAP_3: SEQ ID NO: 167; RecT Escherichia coli (protein) MTKQPPIAKADLQKTQGNRAPAAVKNSDVISFINQPSMKEQLAAALPRHMTAERMIRIATTEIRKVPALGNCDTMSFVSAIVQCSQLGLEPGSALGHAYLLPFGNKNEKSGKKNVQLIIGYRGMIDLARRSGQIASLSARVVREGDEFSFEFGLDEKLIHRPGENEDAPVTHVYAVARLKDGGTQFEVMTRKQIELVRSLSKAGNNGPWVTHWEEMAKKTAIRRLFKYLPVSIEIQRAVSMDEKEPLTIDPADSSVLTGEYSVIDNSEE	0.058	1.058	0.695	−0.942	−0.788
SSAP_254: SEQ ID NO: 423; Pediococcus pentosaceus (protein, listed as Pediococcus pentosaceus) MNDISKVPMKVLVQQDKVQRMLENTLKGKTRQFTTSLINVVNSNQSLADVDQMSVIKSAMVAASLDLPIDQNLGFMWLVPYKGMATPQIGYKGYIQLALRTGQYKKLNTIVVHEGEMKYWNPLTEDFEYDPKGKESDEVIGYLGYLRMINGFEKTVYWTKQNIEDHRMKFSKMSGKAKPSGVWASNYDAMALKTVMRNLLSKWGIMSIEMQQAVVQDEKAPETDVRDVTPTETNSIDSLLAPEPKGEPINDSNEATVPTNAE	−2.669	−4.178	−0.675	−1.160	−0.694
SSAP_107: SEQ ID NO: 276; Ammoniphilus oxalaticus (protein, listed as Ammoniphilus oxalaticus) STKATSNELKNQLANRQGNNAATNNNPANTIAAYLKRMAPEIEKALPAHMDADRLARIALTTIRTTPKLLECTIPSLMGAVMQSAQLGLEPGLIGHCYIIPYGKEATFIIGYKGMIDLARRSGNIESIYAHAVYKNDEFEYEYGLKPNLVHKPAMSDQGDFIGAYAVAHFKDGGYQFEFMPKEEIDKRRNRSAASKGGPWVTDYEEMAKKTVVRHMWKYLPISIEIQQAATQDEVVRKDITEDPMPVDVLDIPFEASDAEETSEEGEINFD	−1.782	−4.159	−0.615	0.596	1.792
SSAP_31: SEQ ID NO: 200 (protein) TTVNQTELKNKLAEKAKTPAKTGNTVFDLIRKMEPEIKRALPKQISPERFARIAMTAVRNTPKLQACEPISFIAALMQSAQLGLEPNTPLGQAYLIPYGKEVQFQLGYQGMLTLAYRTGEYQSIYAMPVYANDEFEYEYGLNEKLVHKPAPDPEGEPIYYYAVYKLKNGGHGFVVMSRQQIERHRDKYSPSAKQGKFSPWNTDFDSMAKKTVLKQLLKYAPKSVEFATQIAQDETIKTEIAEDMTEVQGIEVEYEATDDQENQENQEQED	−4.468	−4.110	−0.643	−4.826	−0.842
SSAP_183: SEQ ID NO: 352; Clostridium sp. CAG: 277 (protein, listed as Clostridium sp.) DFKEELAAKAEVAATTKKSDGVKLTKNMSIVDMIKALEPEIKRALPSVLTPERFVRMALTAVNNTPALAQCTPMSFIAALMNAAQLGLEPNTPLGQAYLIPYKNKKKGVVECQFQIGYKGMIDLVYRNDNVQTIQAHIVRENDHFEYELGLESKLRHIPAMEGRGEMMYVYALFKLTNGGYGFEVLNKEAVIAHAERYSPSYDGFSPWKTDFESKGLELFLILDLSSKQSGK	−2.313	−4.151	−0.615	−0.476	−0.351
SSAP_25: SEQ ID NO: 194 (protein) NNEVMEKSVEYEVNGNSVKLTPNMIKQFITKGNADVTDQEAIMFMKLAEQQQLNPFLNEVYLIKFKGKPAQNIVAKEAFMKRAEKHSEYDGLEAGIIVQRGEEIKELPGAVCLPTDNLLGGWARVYRKDRKNPFYVQLDFKEFSKGQATWNQMPKNMIRKTAIVNALREAFPEALGAMYTEDDARLEEVKTAEPIKEKAETTQILENKFKELSENGQTEVGDEQTNESTEPEPTAKQEQLL	−1.758	−4.113	−0.660	0.597	0.880
SSAP_76: SEQ ID NO: 245 (protein) ANELGIFSVDNLNMTTIKQYLDGGGKASDAELVLLINLCKQNNMNPFMKEVYFIKYGNQPAQIVVSRDFYRKRAFQNPNFAGIEVGVIVLNKDGVLEHNEGTFKTHEQELVGAWARVHLKNTEIPVYVAVSYDEYVQMKDGHPNKMWTNKPCTMLGKVAESQALRMAFPAEFSGTYGEEELPEPEKEPREVNGVKEPDRAQIESFDKEDYAARKIEELKEKAQPQKEVVKETGEVIDEITAEDF	−2.282	−4.256	−0.591	−0.308	−0.267
SSAP_299: SEQ ID NO: 468; Paenibacillus sp. JCM 10914 (protein, listed as Paenibacillus sp.) TMDYVTKIQDALDRELDAKHDALPSGFKKTRFSENCRAYVKDYKDLQKYDAEEVASVLFKGAVLGLDFLAKECHVITEGSALRFQTDYKGEMTLVKKYSVRPILDIYAKNVREGDDFREEISGGKPLIHFNPRAFNNSKITGSFAVALFTDGGMVYETMPAEEIESIREHYGKNPGSDTWEKSQGEMYKRTVLRRLCKTIEIDFDAEQSLAYEAGSSFEFDREQQPKKRSPFNPPEVEESEVLSNDGITETQ	−4.441	−4.250	−0.686	−4.631	−0.809
SSAP_171: SEQ ID NO: 340; Streptomyces indicus (protein, listed as Streptomyces indicus) STDARNAVARRAETVGQVEQQAQQQPTLAQQIERMKPEMERALPKHMSADRMARIALTLIRKNPDLATCNTQSFLGALMTCSQLGFEPGSPTQEAYIIPRKGNAEFQLGYQGMVTLFYQHPMASSIKVETVRENDYFEHEEGLEERLVHRPCATGPRGRAIAYYSVARLINGGRTFKVMYPDEIEERRQKLPSKNSPAWRDNYDEMAKKTVLRNHFKALPKSAQLARALAHDGTVRTDATADVIDVAPEYPQRPELEAGPTA	−2.528	−4.132	−0.827	−0.924	−0.410
SSAP_219: SEQ ID NO: 388; Streptomyces uncialis (protein, listed as Streptomyces uncialis) SQISTAIATRDNGPAAVVEQYRESLALVMPSHLQQRVGAWIRNTQGLLRRDSKLMEAAQNDVGQFVAVLMDAARLGLEPGTEHYYLVPRWNNKKRATEVTGVRGYQGEIELMYRAGAVSSVIVEVVHTQDQFRFRPGRDARPVHDIDWDLEDRGSLRLVYAYAVMKDGATSKVVVLNRQHIAAARAKSDSAAKDWSPWNTDEEAMWLKTAAHRLTKWVPTSAEYLREQIRAQVAVESEQRPEPLPVAPPPAPGTVDADPDDEGPIDGELVD	−1.792	−4.163	−0.726	0.580	0.924
SSAP_226: SEQ ID NO: 395; Companilactobacillus furfuricola (protein, listed as Companilactobacillus furfuricola) VNNLAKLPIQTLVKEPKIVEKFESVLGNKSAQFVTSLINVVNSNQSLKNVDQMSVVASAMVAASLDLPINQDLGYMWLVPYGGKAQPQMGYKGYIQLAQRTGQYKHLNAVAVYEDEFQSYNPLTEQLDYEPHFKDRDSSEKPVGYVGYFELTSGFEKTVYWTRKQIDDHRQSFSKMSGKSKPSGVWATNFDAMALKTVLRNLISKWGPMSVEMQKAYESDEHATTISANDIKDIEVQEQEPATDVSQLINGSATEVNVNDSTTNSKDSE	−3.017	−4.191	−0.610	−1.843	−1.377
